# Reference: US20240059799A1 (Pfizer, published 2024)
# T1: recombinant cynomolgus monkey TL1A (cynomolgus monkey, UniProt O95150 72-251 (human entry))
# T1 chain: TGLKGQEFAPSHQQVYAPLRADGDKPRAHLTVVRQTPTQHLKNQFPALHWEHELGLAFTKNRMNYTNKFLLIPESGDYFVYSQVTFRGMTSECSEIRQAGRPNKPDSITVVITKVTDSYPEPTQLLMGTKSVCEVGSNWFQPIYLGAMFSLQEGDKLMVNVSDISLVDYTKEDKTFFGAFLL
# T2: recombinant human TL1A (human, UniProt O95150 71-251)
# T2 chain: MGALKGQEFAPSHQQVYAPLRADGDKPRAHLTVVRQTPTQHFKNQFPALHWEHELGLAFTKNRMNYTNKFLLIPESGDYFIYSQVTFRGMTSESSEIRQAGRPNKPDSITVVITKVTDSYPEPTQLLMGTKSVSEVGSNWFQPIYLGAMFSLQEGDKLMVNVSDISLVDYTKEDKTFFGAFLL
# T3: human IL-23 (human, UniProt P29460 23-328; Q9NPF7 20-189)
# T3 construct: also called recombinant human IL-23 (p40/p19)
# T3 sequence 1: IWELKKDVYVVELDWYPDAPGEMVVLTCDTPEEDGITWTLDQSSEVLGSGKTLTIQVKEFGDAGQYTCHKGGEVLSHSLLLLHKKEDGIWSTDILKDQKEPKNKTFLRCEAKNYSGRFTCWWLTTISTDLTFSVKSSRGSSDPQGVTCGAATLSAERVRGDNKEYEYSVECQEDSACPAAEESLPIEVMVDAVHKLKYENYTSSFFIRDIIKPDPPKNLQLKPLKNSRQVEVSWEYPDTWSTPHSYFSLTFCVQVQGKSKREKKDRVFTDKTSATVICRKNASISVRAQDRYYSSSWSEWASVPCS
# T3 sequence 2: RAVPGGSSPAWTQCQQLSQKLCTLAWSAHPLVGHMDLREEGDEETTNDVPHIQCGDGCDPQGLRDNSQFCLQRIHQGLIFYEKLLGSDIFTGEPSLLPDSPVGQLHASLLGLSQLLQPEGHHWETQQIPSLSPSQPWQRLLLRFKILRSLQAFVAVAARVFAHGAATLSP
# T4: recombinant rat TL1A (rat, UniProt Q8K3Y7 76-252)
# T4 sequence: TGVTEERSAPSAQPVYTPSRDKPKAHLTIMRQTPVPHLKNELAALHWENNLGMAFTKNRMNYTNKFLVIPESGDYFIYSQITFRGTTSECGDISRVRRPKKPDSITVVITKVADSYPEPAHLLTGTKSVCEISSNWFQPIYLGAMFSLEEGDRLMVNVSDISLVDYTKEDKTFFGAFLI
# T5: recombinant cynomolgus monkey TL1A (cynomolgus monkey, UniProt O95150 72-251 (human entry))
# T5 construct: also called Cyno TL1A
# T5 chain: T1 chain
# T6: recombinant human TL1A (human, UniProt O95150 71-251)
# T6 construct: TL1A is described as a homotrimer; Biotinylated for SPR capture; also called TNFSF15
# T6 chain: T2 chain
# T7: recombinant mouse TL1A (mouse, UniProt Q5UBV8 75-252)
# T7 chain: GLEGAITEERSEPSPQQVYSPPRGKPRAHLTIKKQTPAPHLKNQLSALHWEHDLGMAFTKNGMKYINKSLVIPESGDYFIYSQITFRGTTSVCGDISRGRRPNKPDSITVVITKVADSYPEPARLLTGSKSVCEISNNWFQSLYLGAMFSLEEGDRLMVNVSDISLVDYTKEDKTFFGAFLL
# B1: p40TL1A-0033 (bispecific antibody, human IgG1, kappa)
# chain 1: not shown
# chain 2: QVQLVQSGAEVKKPGASVKVSCKASGYDYTYYGISWVRQAPGQGLEWMGWISTYNTGTHYAPSLQGRVTMTTDTSTSTAYMELRSLRSDDTAVYYCARESYYGSGAFRGGMDVWGQGTTVTVSSASTKGPSVFPLAPSSKSTSGGTAALGCLVKDYFPEPVTVSWNSGALTSGVHTFPAVLQSSGLYSLSSVVTVPSSSLGTQTYICNVNHKPSNTKVDKKVEPKSC
# heavy: EVQLVQSGAEVKKPGESLKISCKGSGYSFTTYWLGWVRQMPGKGLDWIGIMSPVDSDIRYSPSFQGQVTMSVDKSITTAYLQWNSLKASDTAMYYCARRRPGQGYFDFWGQGTLVTVSSASTKGPSVFPLAPSSKSTSGGTAALGCLVKDYFPEPVTVSWNSGALTSGVHTFPAVLQSSGLYSLSSVVTVPSSSLGTQTYICNVNHKPSNTKVDKKVEPKSCDKTHTCPPCPAPEAAGAPSVFLFPPKPKDTLMISRTPEVTCVVVDVSHEDPEVKFNWYVDGVEVHNAKTKPREEQYNSTYRVVSVLTVLHQDWLNGKEYKCKVSNKALPAPIEKTISKAKGQPREPQVCTLPPSREEMTKNQVSLWCLVKGFYPSDIAVEWESNGQPENNYKTTPPVLDSDGSFFLYSKLTVDKSRWQQGNVFSCSVLHEALHSHYTQKSLSLSPGK
# light: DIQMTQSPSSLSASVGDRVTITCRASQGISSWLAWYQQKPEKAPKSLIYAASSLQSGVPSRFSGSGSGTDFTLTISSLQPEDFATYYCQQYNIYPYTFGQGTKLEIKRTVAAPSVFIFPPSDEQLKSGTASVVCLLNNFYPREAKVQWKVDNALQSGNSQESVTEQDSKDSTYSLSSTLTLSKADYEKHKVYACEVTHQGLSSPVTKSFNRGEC
# notes: KiH modified-Fd bispecific: TL1A VL-CL-Fc (hole), TL1A mFd, p40 HC (knob), p40 LC; LS
# B2: p40TL1A-0033 bispecific antibody (bispecific antibody, human IgG1, kappa)
# heavy: B1 heavy
# light: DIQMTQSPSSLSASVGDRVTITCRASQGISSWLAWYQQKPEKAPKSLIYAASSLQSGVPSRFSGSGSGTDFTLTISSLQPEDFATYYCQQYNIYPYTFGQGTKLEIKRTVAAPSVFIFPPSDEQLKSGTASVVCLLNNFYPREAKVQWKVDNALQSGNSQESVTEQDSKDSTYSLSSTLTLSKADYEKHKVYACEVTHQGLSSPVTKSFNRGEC
# chain 1: not shown
# chain 2: B1 chain 2
# notes: Single cell KiH, modified Fd format; IgG1 effector-function-minimized Fc with LS mutations
# Key:
# [1] = target: T1, recombinant cynomolgus monkey TL1A; experiment: cell-based or functional assay
# [2] = target: T2, recombinant human TL1A; experiment: cell-based or functional assay
# [3] = target: T3, human IL-23; experiment: SPR, 37 C; antibody captured by anti-human Fc, human IL-23 injected
# Protocol: SPR was utilized to determine if the affinity constants of each arm of the bispecific variants binding human IL-23, containing the p40 subunit, and human TL1A were the same for each bispecific approach. For the analysis of the p40 binding arm, kinetic assays were conducted at 37° C. using a collection rate of 10 Hz on a Biacore™ 8 K+ instrument (GE Healthcare). An anti-human IgG antibody (anti-human Fc, GE Healthcare, 22-0648-88) was amine coupled to all four flow cells of a carboxymethylated dextran coated sensor chip (GE Healthcare,) using the manufacturer's recommended protocol. […] For the analysis of the TL1A binding arm, kinetic assays were conducted at 37° C. using a collection rate of 10 Hz on a Biacore™ T200 instrument (GE Healthcare).
# As described above in EXAMPLE 12, SPR was utilized to determine if the affinity constants of each arm of the bispecific variants binding human IL-23, containing the p40 subunit, and human TL1A were the same for each bispecific variant.
# [4] = target: T4, recombinant rat TL1A; experiment: SPR, Biacore T200, 37 C; biotinylated TL1A captured on Biotin CAPture chip, antibody injected; KD value is approximate
# Protocol: (§1) In order to determine binding to TL1A, kinetic assays were conducted at 37° C. using a collection rate of 10 Hz on a Biacore™ T200 instrument (GE Healthcare). […] For the analysis of the p40 binding arm, kinetic assays were conducted at 37° C. using a collection rate of 10 Hz on a Biacore™ 8 K+ instrument (GE Healthcare).
# [5] = target: T4, recombinant rat TL1A; experiment: SPR, Biacore T200, 37 C; biotinylated TL1A captured on Biotin CAPture chip, antibody injected
# Protocol: as §1
# [6] = target: T5, recombinant cynomolgus monkey TL1A; experiment: as above
# Protocol: as §1
# [7] = target: T6, recombinant human TL1A; experiment: as above
# Protocol: as §1
# [8] = target: T7, recombinant mouse TL1A; experiment: as above
# Protocol: as §1
"NF-κB assay in TF-1 reporter cells, fold-change of neutralization across species (human against cynomolgus monkey TL1A) [1] [fold]","NF-κB assay in TF-1 reporter cells, neutralization relative to TL1A-0002 [2] [fold]",koff [3] [s⁻¹],kon [3] [M⁻¹ s⁻¹],Kd [4] [nM],koff [5] [s⁻¹],kon [5] [M⁻¹ s⁻¹],Kd [6] [nM],koff [6] [s⁻¹],kon [6] [M⁻¹ s⁻¹],Kd [7] [nM],koff [7] [s⁻¹],kon [7] [M⁻¹ s⁻¹],Kd [8] [nM],koff [8] [s⁻¹],kon [8] [M⁻¹ s⁻¹],Binder
1.7,≤ 2,,,,,,,,,,,,,,,B1
,,0.00056,2.28e+06,~1080,0.0562,52400,1.09,0.000127,117000,0.34,5.05e-05,150000,288,0.00761,26700,B2
